In paper PMC5605669, “Dimerization regulates both deaminase-dependent and deaminase-independent HIV-1 restriction by APOBEC3G” (Nature Communications, 2017):

Key:
[1] = target: the molecule itself; assay: cell-based or functional assay
[2] = target: the molecule itself; assay: AFM imaging; 70 nM A3G incubated 10 min with linearized m13 ssDNA in 10 mM Tris, 2.5 mM NaCl; deposited on APTES coated mica, imaged in liquid; monomers per cluster on ssDNA from cluster volume
[3] = target: the molecule itself; assay: optical tweezers (single-molecule ssDNA extension); fraction of bound A3G that stays stably bound after washing with buffer, against incubation time (200 to 1000 s) at 50 nM; single exponential fit gives the oligomerization rate on ssDNA at 80 pN

Protein	binding result [2]	further results
APOBEC3G, wild type (enzyme, human, UniProt Q9HC16 1-384, looked up) MKPHFRNTVERMYRDTFSYNFYNRPILSRRNTVWLCYEVKTKGPSRPPLDAKIFRGQVYSELKYHPEMRFFHWFSKWRKLHRDQEYEVTWYISWSPCTKCTRDMATFLAEDPKVTLTIFVARLYYFWDPDYQEALRSLCQKRDGPRATMKIMNYDEFQHCWSKFVYSQRELFEPWNNLPKYYILLHIMLGEILRHSMDPPTFTFNFNNEPWVRGRHETYLCYEVERMHNDTWVLLNQRRGFLCNQAPHKHGFLEGRHAELCFLDVIPFWKLDLDQDYRVTCFTSWSPCFSCAQEMAKFISKNKHVSLCIFTARIYDDQGRCQEGLRTLAEAGAKISIMTYSEFKHCWDTFVDHQGCPFQPWDGLDEHSQDLSGRLRAILQNQEN	–	deaminase activity on labeled 118-nt ssDNA after 3 min pre-incubation of 25 nM A3G with unlabeled 69-nt trap ssDNA (0.5 to 5 mM as printed), fold reduction (threefold to 13-fold) [1]: 13 fold
APOBEC3G R313A-D316A-D317A-Q318A (CTD mutant) (enzyme, human, UniProt Q9HC16 1-384, looked up, APOBEC3G (A3G), human, with R313A, D316A, D317A and Q318A in the C-terminal domain; The methods describe the making of A3G in general; also called RDDQ; RDDQ A3G; source: Sf9 cells (recombinant baculovirus), purified in the presence of RNase A) MKPHFRNTVERMYRDTFSYNFYNRPILSRRNTVWLCYEVKTKGPSRPPLDAKIFRGQVYSELKYHPEMRFFHWFSKWRKLHRDQEYEVTWYISWSPCTKCTRDMATFLAEDPKVTLTIFVARLYYFWDPDYQEALRSLCQKRDGPRATMKIMNYDEFQHCWSKFVYSQRELFEPWNNLPKYYILLHIMLGEILRHSMDPPTFTFNFNNEPWVRGRHETYLCYEVERMHNDTWVLLNQRRGFLCNQAPHKHGFLEGRHAELCFLDVIPFWKLDLDQDYRVTCFTSWSPCFSCAQEMAKFISKNKHVSLCIFTAAIYAAAGRCQEGLRTLAEAGAKISIMTYSEFKHCWDTFVDHQGCPFQPWDGLDEHSQDLSGRLRAILQNQEN	binds	–
APOBEC3G F126A-W127A (NTD mutant) (enzyme, human, UniProt Q9HC16 1-384, looked up, APOBEC3G (A3G), human, with F126A and W127A in the N-terminal domain; The methods describe the making of A3G in general; also called FW; FW A3G; source: Sf9 cells (recombinant baculovirus), purified in the presence of RNase A) MKPHFRNTVERMYRDTFSYNFYNRPILSRRNTVWLCYEVKTKGPSRPPLDAKIFRGQVYSELKYHPEMRFFHWFSKWRKLHRDQEYEVTWYISWSPCTKCTRDMATFLAEDPKVTLTIFVARLYYAADPDYQEALRSLCQKRDGPRATMKIMNYDEFQHCWSKFVYSQRELFEPWNNLPKYYILLHIMLGEILRHSMDPPTFTFNFNNEPWVRGRHETYLCYEVERMHNDTWVLLNQRRGFLCNQAPHKHGFLEGRHAELCFLDVIPFWKLDLDQDYRVTCFTSWSPCFSCAQEMAKFISKNKHVSLCIFTARIYDDQGRCQEGLRTLAEAGAKISIMTYSEFKHCWDTFVDHQGCPFQPWDGLDEHSQDLSGRLRAILQNQEN	–	fold reduction of oligomerization rate against WT [3]: 3 fold
APOBEC3G I314A-Y315A (CTD mutant) (enzyme, human, UniProt Q9HC16 1-384, looked up, APOBEC3G (A3G), human, with I314A and Y315A in the C-terminal domain; The methods describe the making of A3G in general; also called IY; IY A3G; source: Sf9 cells (recombinant baculovirus), purified in the presence of RNase A) MKPHFRNTVERMYRDTFSYNFYNRPILSRRNTVWLCYEVKTKGPSRPPLDAKIFRGQVYSELKYHPEMRFFHWFSKWRKLHRDQEYEVTWYISWSPCTKCTRDMATFLAEDPKVTLTIFVARLYYFWDPDYQEALRSLCQKRDGPRATMKIMNYDEFQHCWSKFVYSQRELFEPWNNLPKYYILLHIMLGEILRHSMDPPTFTFNFNNEPWVRGRHETYLCYEVERMHNDTWVLLNQRRGFLCNQAPHKHGFLEGRHAELCFLDVIPFWKLDLDQDYRVTCFTSWSPCFSCAQEMAKFISKNKHVSLCIFTARAADDQGRCQEGLRTLAEAGAKISIMTYSEFKHCWDTFVDHQGCPFQPWDGLDEHSQDLSGRLRAILQNQEN	binds	–
